Source: paper PMC4433220

Target: Dps (Escherichia coli) (UniProt P0ABT2)
Assay: AFM
Conditions: EMSA: 50 mM Tris-HCl pH 7.5, 0.1 mM EDTA, 50 mM NaCl, 37°C 30 min, footprinting: 50 mM Tris-HCl pH 8.0, 0.1 mM EDTA, 0.1 mM DTT, 10 mM MgCl2, 50 mM NaCl …

Substance	binding signal (nm DNA per bound Dps)	binding signal (nm DNA per bound Dps) (nicked at GAGTC sites (9 sites), 4 nt 3' of the site, top strand)
pET28b native	135	–
pET28b nicked with Nt.BspD6I	–	117
